Assay results from paper PMC8419096.

B1: VHH52-GFP (control nanobody elicited against the influenza nucleoprotein, fused to GFP) (VHH)
VHH: QVQLQESGGGLVQAGGSLRLTCALSERTSTSYAQGWFRQPPGKEREFVASLRTHDGNTHYTDSVKGRFTISRDNAENTLYLQMNSLKTEDTAVYYCAASLGYSGAYASGYDYWGQGTQVTVSS

Target: HIV-1 precursor Gag (PrGag) protein (HIV-1) (UniProt P04591)
Assay: dual fluorescence microscopy of virus-like particles

Molecule | percent of CA positive particles that were also GFP positive [%]
EGFP-Vpr (from UniProt P12520 1-96) (natural protein) | 39.1
B1 | 0.1
